This passage reports Kd results from publication PMC7518326 (2020).

This experiment has as its target T1, BBI (Bcl9 peptide) 351-357 (Homo sapiens, UniProt O00512).
T1 chain: LSQEQLE

B1: β-catenin (protein)
chain: ATQADLMELDMAMEPDRKAAVSHWQQQSYLDSGIHSGATTTAPSLSGKGNPEEEDVDTSQVLYEWEQGFSQSFTQEQVADIDGQYAMTRAQRVRAAMFPETLDEGMQIPSTQFDAAHPTNVQRLAEPSQMLKHAVVNLINYQDDAELATRAIPELTKLLNDEDQVVVNKAAVMVHQLSKKEASRHAIMRSPQMVSAIVRTMQNTNDVETARCTAGTLHNLSHHREGLLAIFKSGGIPALVKMLGSPVDSVLFYAITTLHNLLLHQEGAKMAVRLAGGLQKMVALLNKTNVKFLAITTDCLQILAYGNQESKLIILASGGPQALVNIMRTYTYEKLLWTTSRVLKVLSVCSSNKPAIVEAGGMQALGLHLTDPSQRLVQNCLWTLRNLSDAATKQEGMEGLLGTLVQLLGSDDINVVTCAAGILSNLTCNNYKNKMMVCQVGGIEALVRTVLRAGDREDITEPAICALRHLTSRHQEAEMAQNAVRLHYGLPVVVKLLHPPSHWPLIKATVGLIRNLALCPANHAPLREQGAIPRLVQLLVRAHQDTQRRTSMGGTQQQFVEGVRMEEIVEGCTGALHILARDVHNRIVIRGLNTIPLFVQLLYSPIENIQRVAAGVLCELAQDKEAAEAIEAEGATAPLTELLHSRNEGVATYAAAVLFRMSEDKPQDYKKRLSVELTSSLFRTEPMAWNETADLGLDIGAQGEPLGYRQDDPSYRSFHSGGYGQDALGMDPMMEHEMGGHHPGADYPVDGLPDLGHAQDLMDGLPPGDSNQLAWFDTDL
A word on the Kd: it is the concentration at which binding is half-saturated. Low values mean tighter binding, high ones weaker binding. For the molecule B1, the Kd is approximately 1 µM.
